The values that follow come from PMC4132754 (Nucleic Acids Research, 2014).

Holding throughout (test): MST
The target of one data set is T1, UPF1 ΔStalk (human, UniProt Q92900-2 1-1118, del271-433).
T1 sequence: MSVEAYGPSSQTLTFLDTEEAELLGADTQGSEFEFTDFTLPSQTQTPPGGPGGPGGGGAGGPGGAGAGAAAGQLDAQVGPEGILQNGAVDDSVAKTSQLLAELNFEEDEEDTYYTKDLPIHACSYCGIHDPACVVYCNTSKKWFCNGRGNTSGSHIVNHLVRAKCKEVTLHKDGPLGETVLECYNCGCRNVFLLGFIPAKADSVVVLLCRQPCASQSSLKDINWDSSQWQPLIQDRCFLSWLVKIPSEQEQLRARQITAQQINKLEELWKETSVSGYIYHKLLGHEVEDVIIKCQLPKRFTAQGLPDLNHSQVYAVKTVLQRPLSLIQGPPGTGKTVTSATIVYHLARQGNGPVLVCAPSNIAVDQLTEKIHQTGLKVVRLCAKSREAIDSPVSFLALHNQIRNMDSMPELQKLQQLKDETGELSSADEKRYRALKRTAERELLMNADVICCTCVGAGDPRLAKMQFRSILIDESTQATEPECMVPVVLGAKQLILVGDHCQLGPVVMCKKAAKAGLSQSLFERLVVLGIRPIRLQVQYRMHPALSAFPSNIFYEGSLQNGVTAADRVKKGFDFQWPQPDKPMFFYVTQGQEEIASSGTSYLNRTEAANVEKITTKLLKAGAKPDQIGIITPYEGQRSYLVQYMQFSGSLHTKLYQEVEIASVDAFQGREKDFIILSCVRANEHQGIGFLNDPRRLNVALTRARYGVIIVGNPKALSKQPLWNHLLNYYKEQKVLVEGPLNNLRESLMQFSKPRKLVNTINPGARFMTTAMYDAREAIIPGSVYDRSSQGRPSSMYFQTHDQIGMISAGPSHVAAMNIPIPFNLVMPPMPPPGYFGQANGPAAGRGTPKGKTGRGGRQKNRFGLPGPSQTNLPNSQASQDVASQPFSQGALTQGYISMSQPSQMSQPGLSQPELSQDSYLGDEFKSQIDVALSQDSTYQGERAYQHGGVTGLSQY

For the next data set, the target named is T2, UPF1 WT (human, UniProt Q92900-2 1-1118).
T2 sequence: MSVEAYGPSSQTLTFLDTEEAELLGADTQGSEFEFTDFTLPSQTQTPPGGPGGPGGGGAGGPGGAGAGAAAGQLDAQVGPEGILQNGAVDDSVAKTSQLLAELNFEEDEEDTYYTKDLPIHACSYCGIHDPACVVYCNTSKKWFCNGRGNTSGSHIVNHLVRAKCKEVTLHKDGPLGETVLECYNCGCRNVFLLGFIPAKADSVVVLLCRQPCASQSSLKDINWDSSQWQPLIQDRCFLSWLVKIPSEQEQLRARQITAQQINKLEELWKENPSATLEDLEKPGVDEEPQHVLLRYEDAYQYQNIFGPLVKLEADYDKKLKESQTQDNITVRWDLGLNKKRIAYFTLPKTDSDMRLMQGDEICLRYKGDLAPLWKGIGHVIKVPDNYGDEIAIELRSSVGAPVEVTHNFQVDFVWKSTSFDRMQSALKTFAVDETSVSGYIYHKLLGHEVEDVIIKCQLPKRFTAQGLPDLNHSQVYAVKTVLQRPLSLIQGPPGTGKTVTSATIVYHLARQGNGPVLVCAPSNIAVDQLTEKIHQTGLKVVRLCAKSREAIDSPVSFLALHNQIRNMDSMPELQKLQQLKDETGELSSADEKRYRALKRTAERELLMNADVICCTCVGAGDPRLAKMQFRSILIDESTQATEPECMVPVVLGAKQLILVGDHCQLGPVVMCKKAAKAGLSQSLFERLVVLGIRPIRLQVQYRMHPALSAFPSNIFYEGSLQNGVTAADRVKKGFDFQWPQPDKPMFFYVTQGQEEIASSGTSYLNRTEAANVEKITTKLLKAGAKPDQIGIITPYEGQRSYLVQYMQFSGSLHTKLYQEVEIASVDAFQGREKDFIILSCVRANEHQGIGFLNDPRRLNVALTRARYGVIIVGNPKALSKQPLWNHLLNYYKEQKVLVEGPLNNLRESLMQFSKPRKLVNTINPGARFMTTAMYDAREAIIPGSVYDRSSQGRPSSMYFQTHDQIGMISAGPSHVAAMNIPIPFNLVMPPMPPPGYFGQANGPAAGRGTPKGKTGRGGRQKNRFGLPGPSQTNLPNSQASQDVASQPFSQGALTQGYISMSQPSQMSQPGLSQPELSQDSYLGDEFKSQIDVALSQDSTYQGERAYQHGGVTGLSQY

The next data set addresses T3, UPF1 Δ1C (human, UniProt Q92900-2 1-1118, del561-608).
T3 sequence: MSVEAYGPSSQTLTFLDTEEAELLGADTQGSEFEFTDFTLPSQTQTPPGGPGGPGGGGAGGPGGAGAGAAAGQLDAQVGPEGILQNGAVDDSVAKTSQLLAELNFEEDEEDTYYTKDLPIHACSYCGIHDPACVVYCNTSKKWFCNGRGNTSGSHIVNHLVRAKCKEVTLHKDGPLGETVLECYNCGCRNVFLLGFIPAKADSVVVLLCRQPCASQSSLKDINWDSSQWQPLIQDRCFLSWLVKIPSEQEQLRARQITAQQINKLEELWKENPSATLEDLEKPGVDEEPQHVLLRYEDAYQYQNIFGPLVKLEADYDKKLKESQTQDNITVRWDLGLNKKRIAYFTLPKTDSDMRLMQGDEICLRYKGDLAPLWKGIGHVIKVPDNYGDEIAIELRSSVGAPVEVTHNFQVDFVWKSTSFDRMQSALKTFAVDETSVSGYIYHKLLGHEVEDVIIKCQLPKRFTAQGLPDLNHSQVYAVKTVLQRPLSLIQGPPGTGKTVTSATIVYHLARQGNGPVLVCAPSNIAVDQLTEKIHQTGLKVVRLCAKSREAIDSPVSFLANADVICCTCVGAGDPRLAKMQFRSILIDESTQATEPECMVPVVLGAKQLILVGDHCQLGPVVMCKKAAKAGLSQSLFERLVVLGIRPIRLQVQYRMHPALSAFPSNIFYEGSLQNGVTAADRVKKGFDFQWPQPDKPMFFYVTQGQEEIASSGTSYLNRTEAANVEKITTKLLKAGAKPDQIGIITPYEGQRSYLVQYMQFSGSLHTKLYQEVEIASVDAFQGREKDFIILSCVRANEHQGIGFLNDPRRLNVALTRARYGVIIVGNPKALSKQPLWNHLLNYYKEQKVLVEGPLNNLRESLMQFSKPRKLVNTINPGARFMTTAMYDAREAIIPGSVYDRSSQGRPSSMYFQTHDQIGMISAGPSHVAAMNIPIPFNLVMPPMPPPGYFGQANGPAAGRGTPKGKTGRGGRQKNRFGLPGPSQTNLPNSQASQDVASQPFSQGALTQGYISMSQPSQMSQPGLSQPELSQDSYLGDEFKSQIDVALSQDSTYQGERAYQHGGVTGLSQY

The target in another data set is SMG6 (human, UniProt Q86US8 1-1419).
Sequence of SMG6 (Q86US8 whole entry): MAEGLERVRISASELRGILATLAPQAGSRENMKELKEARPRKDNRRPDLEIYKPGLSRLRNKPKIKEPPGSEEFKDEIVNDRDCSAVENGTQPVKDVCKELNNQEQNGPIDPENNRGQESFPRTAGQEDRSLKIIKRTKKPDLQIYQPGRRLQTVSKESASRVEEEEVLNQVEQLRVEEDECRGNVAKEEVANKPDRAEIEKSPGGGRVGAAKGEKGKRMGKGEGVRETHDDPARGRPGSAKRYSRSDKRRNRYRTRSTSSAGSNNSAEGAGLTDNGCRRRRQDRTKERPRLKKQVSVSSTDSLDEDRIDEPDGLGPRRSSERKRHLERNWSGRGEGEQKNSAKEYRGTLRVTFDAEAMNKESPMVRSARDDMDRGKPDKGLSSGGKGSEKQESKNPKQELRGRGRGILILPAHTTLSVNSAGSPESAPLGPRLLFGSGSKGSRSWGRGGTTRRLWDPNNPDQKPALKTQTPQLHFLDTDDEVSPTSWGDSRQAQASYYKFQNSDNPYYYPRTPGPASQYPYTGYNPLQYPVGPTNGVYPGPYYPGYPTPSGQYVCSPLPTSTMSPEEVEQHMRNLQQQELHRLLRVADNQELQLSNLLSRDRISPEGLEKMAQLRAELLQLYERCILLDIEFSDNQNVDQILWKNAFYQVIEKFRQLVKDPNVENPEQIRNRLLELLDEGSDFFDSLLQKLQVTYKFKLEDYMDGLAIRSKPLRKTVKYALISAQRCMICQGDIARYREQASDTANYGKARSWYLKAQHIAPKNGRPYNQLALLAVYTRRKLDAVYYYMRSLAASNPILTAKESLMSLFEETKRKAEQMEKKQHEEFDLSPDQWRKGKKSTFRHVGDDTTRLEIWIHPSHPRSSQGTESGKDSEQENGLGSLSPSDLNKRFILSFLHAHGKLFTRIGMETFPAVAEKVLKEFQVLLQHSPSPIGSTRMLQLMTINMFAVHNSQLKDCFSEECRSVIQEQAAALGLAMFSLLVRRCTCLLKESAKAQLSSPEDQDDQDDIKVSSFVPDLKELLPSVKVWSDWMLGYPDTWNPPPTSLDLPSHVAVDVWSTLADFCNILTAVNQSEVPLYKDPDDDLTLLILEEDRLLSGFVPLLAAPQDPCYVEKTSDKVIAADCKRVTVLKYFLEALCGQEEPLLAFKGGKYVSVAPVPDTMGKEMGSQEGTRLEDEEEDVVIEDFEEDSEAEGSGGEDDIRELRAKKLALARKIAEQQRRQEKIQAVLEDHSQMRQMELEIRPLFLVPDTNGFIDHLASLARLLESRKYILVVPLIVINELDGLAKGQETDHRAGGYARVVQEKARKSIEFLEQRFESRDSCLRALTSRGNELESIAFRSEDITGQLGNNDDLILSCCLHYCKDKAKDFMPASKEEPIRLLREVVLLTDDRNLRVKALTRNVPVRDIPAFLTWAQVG

As for UUUUUUUUUUUUUUUUUUUUUUUUUUUUUU (ssRNA) [U30 RNA], the Kd – broadly, the equilibrium constant for the complex coming apart – in the data set with UPF1 ΔStalk is 6.51 nM; in the data set with UPF1 WT it was 1.48 nM. In the data set with UPF1 Δ1C, the binding signal was 32.2 fold lower affinity than WT. For the same molecule, the binding result with SMG6 is “no binding”.
